This is an account of results in US20240141048A1 (published 2024).

Holding throughout (assay): BLI
In assay [1] the target is T1, His-tagged human VISTA extracellular domain protein (in house) (UniProt Q9H7M9 33-194).
Assay [2] concerns the target T2, His-tagged cynomolgus VISTA extracellular domain protein (in house) (cynomolgus, UniProt A0A7N9IB00 33-194).
T2 chain: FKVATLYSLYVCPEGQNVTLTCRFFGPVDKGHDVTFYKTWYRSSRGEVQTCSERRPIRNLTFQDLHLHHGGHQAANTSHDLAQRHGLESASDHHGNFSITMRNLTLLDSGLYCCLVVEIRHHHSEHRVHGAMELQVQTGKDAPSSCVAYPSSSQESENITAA

Assay [3] has as its target T1, His-tagged human VISTA extracellular …. This is another data set of the same source.
The target of assay [4] is T2, His-tagged cynomolgus VISTA ….
Assay [5] addresses T1, His-tagged human VISTA extracellular …. This is another data set of the same source.
The target of assay [6] is T2, His-tagged cynomolgus VISTA ….
Assay [7] deals with T1, His-tagged human VISTA extracellular …. The source holds these as a separate data set.
For assay [8], the target named is T2, His-tagged cynomolgus VISTA ….
In assay [9] the target is T1, His-tagged human VISTA extracellular …. The source holds these as a separate data set.
The target of assay [10] is T2, His-tagged cynomolgus VISTA ….

Where a chain is given by its changes, count along the chain named. Read-outs that look alike come from different tables or passages of the source.

T1 sequence (Q9H7M9 33-194): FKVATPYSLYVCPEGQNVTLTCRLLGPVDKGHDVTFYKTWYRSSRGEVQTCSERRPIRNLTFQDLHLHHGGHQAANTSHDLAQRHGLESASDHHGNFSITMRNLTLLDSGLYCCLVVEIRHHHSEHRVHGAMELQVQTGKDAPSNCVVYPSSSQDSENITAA

B1: anti-VISTA antibody 20E4 (antibody, V domains shown)
VH: QVQLQQSGAELMKPGASVKISCKATGYTFSSSWVEWVRQRPGHGLEWIGEIFPGSGSTHYNEKFKGKATFTADTSSNTAYLQLSSLTSDDSAVYYCARRPPGWFFDVWGAGTTVTVSS
VL: DIVMTQSHKFMSTSVGDRVSITCKASQDVSTDVAWYQQKPGQSPKLLIYSASYRYTGVPDRFTGSGSGTDFTFTISSVQAEDLAVYYCQQHYSTPWTFGGGTKLEIK
As to B1, the results for the Kd in assay [1] and in assay [2] were 0.011 nM and 6.53 nM, respectively.

B2: anti-VISTA antibody 17E9 (antibody, V domains shown)
VH: QVQLQQSGAELMKPGASVKISCTATGYTFSSCWIEWVKQRPGHGLEWLGEILPGSDYTNYNEKFKDKATFTADTSSDTAYMQLSSLTSEDSAVYYCARRPPGWYFDVWGAGTAVTVSS
VL: B1 VL with V33I, Y55F, Q90H, H91Q, E105D
Regarding B2, the Kd in [3] worked out at 4.21 pM; in assay [4] it was 3.35 nM.

B3: anti-VISTA antibody 16A1 (antibody, V domains shown)
VH: B1 VH with V34I, R38K, T58L, H59N, Y60F
VL: B1 VL with S30T, A84T, T94S
In the case of B3, the equilibrium dissociation constant (Kd) worked out at 2.78 pM in assay [5] and 2.57 nM in [6].

B4: anti-VISTA antibody 15D11 (antibody, V domains shown)
VH: EVQLQQSGSELVKAGASVKLSCTASGFKIKDTFIHWVKQRPEQGLDWIGRIDPANGNSKYDPKFQGKATITADTSSNTAYLQLSSLTSEDTAVYYCARWPSNWEAMDYWGQGTSVTVSS
VL: QIVLTQSPAIMSASPGEKVTMTCSASSSVSYMYWYQQKPGSSPRLLIYDTSNLASGVPFRFSGSGSGTSYSLTISRMEAEDAATYYCQQWISYPLTFGTGTKLELK
Turning to B4, the dissociation constant (Kd) in assay [7] stood at 12.5 nM; in assay [8], 5.83 pM.

B5: anti-VISTA antibody 9F9 (antibody, V domains shown)
VH: QVQFQQSGAELARPGASVKLSCKASGYTFTGYWMQWVKQRPGQGLEWIGAIYPGDGDTRYSQKFKGKVTLTADKSSSTAYMQLSSLASEDSAVYYCARRDYGAWFAYWGQGTLVTVSA
VL: DIKVTQSPSSMYASLGERVTITCKASQDINSYLSWFQQKPGKSPKTLIYRANRLVDGVPSRFSGSGSGQDYSLTISSLDYEDMGIYYCLQYDEFPYTFGGGTKLEIK
With B5, the dissociation constant (Kd) in assay [9] was 2.45 nM; in assay [10], 7.37 nM.

A word on the Kd: it is the concentration at which binding is half-saturated. The low end stands for higher affinity, the high end for lower affinity.
